# Source: patent EP1780277A1
# Molecular target: intact IFNAR1 from human cells (human) (UniProt P17181)
# Test: cell-based or functional assay
# Sequence of UniProt P17181 (P17181 28-557): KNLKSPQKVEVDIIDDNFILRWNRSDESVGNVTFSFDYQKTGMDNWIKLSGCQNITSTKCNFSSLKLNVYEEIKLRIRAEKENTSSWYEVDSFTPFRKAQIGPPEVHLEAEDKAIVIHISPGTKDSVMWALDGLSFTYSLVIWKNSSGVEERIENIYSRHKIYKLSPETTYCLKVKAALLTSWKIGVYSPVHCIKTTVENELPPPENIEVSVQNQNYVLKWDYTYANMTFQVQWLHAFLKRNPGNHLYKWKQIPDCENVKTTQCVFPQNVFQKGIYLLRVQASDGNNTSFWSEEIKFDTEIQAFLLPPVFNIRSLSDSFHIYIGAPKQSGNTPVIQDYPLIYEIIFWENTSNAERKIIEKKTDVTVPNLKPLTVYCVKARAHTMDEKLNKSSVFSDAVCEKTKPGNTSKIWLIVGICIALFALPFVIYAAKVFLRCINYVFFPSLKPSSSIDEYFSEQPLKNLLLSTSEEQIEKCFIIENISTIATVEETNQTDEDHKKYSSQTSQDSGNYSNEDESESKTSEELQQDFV
substance,measurement,value
IR1B4/PRMT protein of human U266S cells (from UniProt Q99873 11-371),"growth inhibitory effect of IFN-β on myeloma cells (Alamar Blue), with antisense-1 oligonucleotide against IR1B4",< 5 fold
